{"source": "patent US20100062005A1", "about": "(University of California, published 2010)", "key": {"[1]": {"biological_target": "T1, human ROR1 protein (human, UniProt Q01973 30-937)", "T1 sequence (Q01973 30-937 limits assumed)": "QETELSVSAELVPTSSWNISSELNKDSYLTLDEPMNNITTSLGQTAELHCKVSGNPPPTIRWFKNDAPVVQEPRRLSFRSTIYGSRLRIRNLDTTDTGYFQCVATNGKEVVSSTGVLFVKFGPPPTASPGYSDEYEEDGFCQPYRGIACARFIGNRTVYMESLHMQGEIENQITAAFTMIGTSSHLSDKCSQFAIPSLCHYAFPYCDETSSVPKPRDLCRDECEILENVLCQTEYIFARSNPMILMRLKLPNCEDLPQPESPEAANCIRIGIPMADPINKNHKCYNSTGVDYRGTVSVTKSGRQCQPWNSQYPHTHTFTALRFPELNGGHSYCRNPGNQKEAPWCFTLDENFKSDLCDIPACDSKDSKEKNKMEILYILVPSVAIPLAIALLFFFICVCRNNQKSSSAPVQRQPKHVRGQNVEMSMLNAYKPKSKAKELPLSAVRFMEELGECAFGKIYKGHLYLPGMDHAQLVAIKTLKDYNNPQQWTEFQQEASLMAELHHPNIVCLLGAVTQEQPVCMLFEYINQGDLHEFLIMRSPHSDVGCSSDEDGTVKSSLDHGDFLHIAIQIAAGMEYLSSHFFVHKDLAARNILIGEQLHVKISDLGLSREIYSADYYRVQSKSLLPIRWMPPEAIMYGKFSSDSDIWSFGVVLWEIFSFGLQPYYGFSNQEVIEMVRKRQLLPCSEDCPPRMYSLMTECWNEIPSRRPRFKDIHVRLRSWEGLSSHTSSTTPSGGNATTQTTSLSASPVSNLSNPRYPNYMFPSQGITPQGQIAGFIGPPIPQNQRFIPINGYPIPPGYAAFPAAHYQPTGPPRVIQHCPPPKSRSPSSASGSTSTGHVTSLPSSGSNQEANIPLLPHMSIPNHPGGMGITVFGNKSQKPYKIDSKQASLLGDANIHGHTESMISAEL"}, "[2]": {"biological_target": "T1, human ROR1 protein", "test": "flow cytometry on CD5-negative, CD10+, CD19+ marrow B lymphocyte precursors (N=9 samples)"}, "[3]": {"biological_target": "T1, human ROR1 protein", "test": "flow cytometry, Alexa-647-4A5 against IgG2b isotype control, ZAP-70-negative CLL cases (N=36)"}, "[4]": {"biological_target": "T1, human ROR1 protein", "test": "flow cytometry, Alexa-647-4A5 against IgG2b isotype control, ZAP-70-positive CLL cases (N=33)"}}, "note": "Where two headings read alike, the source gives them in different places.", "data": [{"binder": "4A5 anti-ROR1 mAb (antibody, V domains shown) VH: EVKLVESGGGLVKPGGSLKLSCAASGFTFSSYAMSWVRQIPEKRLEWVASISRGGTTYYPDSVKGRFTISRDNVRNILYLQMSSLRSEDTAMYYCGRYDYDGYYAMDYWGQGTSVTVSS VL: DIKMTQSPSSMYASLGERVTITCKASPDINSYLSWFQQKPGKSPKTLIYRANRLVDGVPSRFSGGGSGQDYSLTINSLEYEDMGIYYCLQYDEFPYTFGGGTKLEMK", "values": [{"measurement": "MFI ratio (MFIR)", "setting": "[1]", "value": 10, "unit": "ratio"}, {"measurement": "MFI ratio (MFIR)", "setting": "[2]", "value": 6.3, "unit": "ratio"}, {"measurement": "average MFIR", "setting": "[3]", "value": 12.4, "unit": "ratio"}, {"measurement": "median MFIR", "setting": "[3]", "value": 12, "unit": "ratio"}, {"measurement": "average MFIR", "setting": "[4]", "value": 12, "unit": "ratio"}, {"measurement": "median MFIR", "setting": "[4]", "value": 12.2, "unit": "ratio"}]}]}
